± gives the uncertainty stated by the source.
B1: Homeobox protein cut-like 2, residues 895 to 963; numbered along this chain, O14529 (parent)
chain: EVDTLELTRQVKEKLAKNGICQRIFGEKVLGLSQGSVSDMLSRPKPWSKLTQKGREPFIRMQLWLSDQL

Variants of: B1
Experiment: abundance fitness (aPCA) (normalised: wild type 0, dead -1); higher = more abundant; growth selection in yeast, the domain comes from the species named
Settings: Homo sapiens

Point of comparison: EVDTLELTRQVKEKKAKNGICQRIFGEKVLGLSQGSVSDMLSRPKPWSKLTQKGREPFIRMQLWLSDQL [L15K], abundance fitness 0.029 ± 0.038. Against it:
- EVDTLELTRQVKEKLAKTGICQRIFGEKVLGLSQGSVSDMLSRPKPWSKLTQKGREPFIRMQLWLSDQL [N18T] — within error, 0.022 ± 0.035
- EVDTLELTRQVKEKLAKGGICQRIFGEKVLGLSQGSVSDMLSRPKPWSKLTQKGREPFIRMQLWLSDQL [N18G] — lower, -0.098 ± 0.058
- EVDTLELTRQVKEKLAKEGICQRIFGEKVLGLSQGSVSDMLSRPKPWSKLTQKGREPFIRMQLWLSDQL [N18E] — within error, 0.045 ± 0.063
- EVDTLELTRQVKEKLAKFGICQRIFGEKVLGLSQGSVSDMLSRPKPWSKLTQKGREPFIRMQLWLSDQL [N18F] — lower, -0.065 ± 0.045
- EVDTLELTRQVKEKLAKAGICQRIFGEKVLGLSQGSVSDMLSRPKPWSKLTQKGREPFIRMQLWLSDQL [N18A] — lower, -0.119 ± 0.044
- EVDTLELTRQVKEKLAKKGICQRIFGEKVLGLSQGSVSDMLSRPKPWSKLTQKGREPFIRMQLWLSDQL [N18K] — within error, 0.04 ± 0.037
- EVDTLELTRQVKEKLAKHGICQRIFGEKVLGLSQGSVSDMLSRPKPWSKLTQKGREPFIRMQLWLSDQL [N18H] — within error, 0.001 ± 0.049
- EVDTLELTRQVKEKLAKVGICQRIFGEKVLGLSQGSVSDMLSRPKPWSKLTQKGREPFIRMQLWLSDQL [N18V] — lower, -0.075 ± 0.043
- EVDTLELTRQVKEKLAKQGICQRIFGEKVLGLSQGSVSDMLSRPKPWSKLTQKGREPFIRMQLWLSDQL [N18Q] — within error, -0.016 ± 0.034
- EVDTLELTRQVKEKLAKCGICQRIFGEKVLGLSQGSVSDMLSRPKPWSKLTQKGREPFIRMQLWLSDQL [N18C] — lower, -0.354 ± 0.091
- EVDTLELTRQVKEKLAKYGICQRIFGEKVLGLSQGSVSDMLSRPKPWSKLTQKGREPFIRMQLWLSDQL [N18Y] — lower, -0.128 ± 0.057
- EVDTLELTRQVKEKLAKLGICQRIFGEKVLGLSQGSVSDMLSRPKPWSKLTQKGREPFIRMQLWLSDQL [N18L] — higher, 0.115 ± 0.027
- EVDTLELTRQVKEKLAKIGICQRIFGEKVLGLSQGSVSDMLSRPKPWSKLTQKGREPFIRMQLWLSDQL [N18I] — lower, -0.101 ± 0.049
- EVDTLELTRQVKEKLAKRGICQRIFGEKVLGLSQGSVSDMLSRPKPWSKLTQKGREPFIRMQLWLSDQL [N18R] — within error, 0.013 ± 0.035
- EVDTLELTRQVKEKLAKDGICQRIFGEKVLGLSQGSVSDMLSRPKPWSKLTQKGREPFIRMQLWLSDQL [N18D] — lower, -0.153 ± 0.081
- EVDTLELTRQVKEKLAKWGICQRIFGEKVLGLSQGSVSDMLSRPKPWSKLTQKGREPFIRMQLWLSDQL [N18W] — lower, -0.102 ± 0.041
- EVDTLELTRQVKEKLAKNIICQRIFGEKVLGLSQGSVSDMLSRPKPWSKLTQKGREPFIRMQLWLSDQL [G19I] — lower, -0.434 ± 0.057
- EVDTLELTRQVKEKLAKNKICQRIFGEKVLGLSQGSVSDMLSRPKPWSKLTQKGREPFIRMQLWLSDQL [G19K] — within error, 0.009 ± 0.041
- EVDTLELTRQVKEKLAKNLICQRIFGEKVLGLSQGSVSDMLSRPKPWSKLTQKGREPFIRMQLWLSDQL [G19L] — lower, -0.31 ± 0.025
- EVDTLELTRQVKEKLAKNHICQRIFGEKVLGLSQGSVSDMLSRPKPWSKLTQKGREPFIRMQLWLSDQL [G19H] — lower, -0.374 ± 0.33
- EVDTLELTRQVKEKLAKNEICQRIFGEKVLGLSQGSVSDMLSRPKPWSKLTQKGREPFIRMQLWLSDQL [G19E] — lower, -0.46 ± 0.092
- EVDTLELTRQVKEKLAKNFICQRIFGEKVLGLSQGSVSDMLSRPKPWSKLTQKGREPFIRMQLWLSDQL [G19F] — lower, -0.226 ± 0.041
- EVDTLELTRQVKEKLAKNNICQRIFGEKVLGLSQGSVSDMLSRPKPWSKLTQKGREPFIRMQLWLSDQL [G19N] — within error, -0.007 ± 0.076
- EVDTLELTRQVKEKLAKNAICQRIFGEKVLGLSQGSVSDMLSRPKPWSKLTQKGREPFIRMQLWLSDQL [G19A] — lower, -0.32 ± 0.095
- EVDTLELTRQVKEKMAKNGICQRIFGEKVLGLSQGSVSDMLSRPKPWSKLTQKGREPFIRMQLWLSDQL [L15M] — within error, 0.053 ± 0.034
- EVDTLELTRQVKEKWAKNGICQRIFGEKVLGLSQGSVSDMLSRPKPWSKLTQKGREPFIRMQLWLSDQL [L15W] — lower, -0.338 ± 0.034
- EVDTLELTRQVKEKDAKNGICQRIFGEKVLGLSQGSVSDMLSRPKPWSKLTQKGREPFIRMQLWLSDQL [L15D] — lower, -0.211 ± 0.048
- EVDTLELTRQVKEKSAKNGICQRIFGEKVLGLSQGSVSDMLSRPKPWSKLTQKGREPFIRMQLWLSDQL [L15S] — lower, -0.087 ± 0.053
- EVDTLELTRQVKEKIAKNGICQRIFGEKVLGLSQGSVSDMLSRPKPWSKLTQKGREPFIRMQLWLSDQL [L15I] — lower, -0.084 ± 0.047
- EVDTLELTRQVKEKGAKNGICQRIFGEKVLGLSQGSVSDMLSRPKPWSKLTQKGREPFIRMQLWLSDQL [L15G] — lower, -0.113 ± 0.027
- EVDTLELTRQVKEKRAKNGICQRIFGEKVLGLSQGSVSDMLSRPKPWSKLTQKGREPFIRMQLWLSDQL [L15R] — lower, -0.069 ± 0.045
- EVDTLELTRQVKEKYAKNGICQRIFGEKVLGLSQGSVSDMLSRPKPWSKLTQKGREPFIRMQLWLSDQL [L15Y] — lower, -0.124 ± 0.052
- EVDTLELTRQVKEKFAKNGICQRIFGEKVLGLSQGSVSDMLSRPKPWSKLTQKGREPFIRMQLWLSDQL [L15F] — lower, -0.157 ± 0.043
- EVDTLELTRQVKEKTAKNGICQRIFGEKVLGLSQGSVSDMLSRPKPWSKLTQKGREPFIRMQLWLSDQL [L15T] — lower, -0.343 ± 0.32
- EVDTLELTRQVKEKNAKNGICQRIFGEKVLGLSQGSVSDMLSRPKPWSKLTQKGREPFIRMQLWLSDQL [L15N] — lower, -0.184 ± 0.059
- EVDTLELTRQVKEKCAKNGICQRIFGEKVLGLSQGSVSDMLSRPKPWSKLTQKGREPFIRMQLWLSDQL [L15C] — lower, -0.123 ± 0.043
- EVDTLELTRQVKEKVAKNGICQRIFGEKVLGLSQGSVSDMLSRPKPWSKLTQKGREPFIRMQLWLSDQL [L15V] — lower, -0.154 ± 0.027
- EVDTLELTRQVKEKAAKNGICQRIFGEKVLGLSQGSVSDMLSRPKPWSKLTQKGREPFIRMQLWLSDQL [L15A] — within error, 0.038 ± 0.14
